Results as given in publication PMC4050190.
“And” between values parts separate entries of the source, which are not always exact repeats. Equal values may be shown once.

Biological target: 6x His-p10 (pRSF duet, first multiple cloning site) (Sesbania mosaic virus)

## untagged SeMV RdRp (pRSF duet) (domain or fragment)
  in vitro RdRp assay (incorporation of αP32 UTP, filter binding, 2 μg protein, 30 °C, 1 h): activity of the RdRp-p10 complex against RdRp alone: 5 fold and 6 fold
